# Measurements reported in patent US9404925B2, “Cancer antigen and use thereof” (MEDINET CO., LTD., priority 2002, dated 2016).
# B1: hsp105 protein: recombinant hsp105 protein, heat shock protein cancer antigen (SEQ ID NO: 1), used to induce CD4 positive helper T cell lines (protein, listed as Homo sapiens)
# chain: MSVVGLDVGSQSCYIAVARAGGIETIANEFSDRCTPSVISFGSKNRTIGVAAKNQQITHANNTVSNFKRFHGRAFNDPFIQKEKENLSYDLVPLKNGGVGIKVMYMGEEHLFSVEQITAMLLTKLKETAENSLKKPVTDCVISVPSFFTDAERRSVLDAAQIVGLNCLRLMNDMTAVALNYGIYKQDLPSLDEKPRIVVFVDMGHSAFQVSACAFNKGKLKVLGTAFDPFLGGKNFDEKLVEHFCAEFKTKYKLDAKSKIRALLRLYQECEKLKKLMSSNSTDLPLNIECFMNDKDVSGKMNRSQFEELCAELLQKIEVPLYSLLEQTHLKVEDVSAVEIVGGATRIPAVKERIAKFFGKDISTTLNADEAVARGCALQCAILSPAFKVREFSVTDAVPFPISLIWNHDSEDTEGVHEVFSRNHAAPFSKVLTFLRRGPFELEAFYSDPQGVPYPEAKIGRFVVQNVSAQKDGEKSRVKVKVRVNTHGIFTISTASMVEKVPTEENEMSSEADMECLNQRPPENPDTDKNVQQDNSEAGTQPQVQTDAQQTSQSPPSPELTSEENKIPDADKANEKKVDQPPEAKKPKIKVVNVELPIEANLVWQLGKDLLNMYIETEGKMIMQDKLEKERNDAKNAVEEYVYEFRDKLCGPYEKFICEQDHQNFLRLLTETEDWLYEEGEDQAKQAYVDKLEELMKIGTPVKVRFQEAEERPKMFEELGQRLQHYAKIAADFRNKDEKYNHIDESEMKKVEKSVNEVMEWMNNVMNAQAKKSLDQDPVVRAQEIKTKIKELNNTCEPVVTQPKPKIESPKLERTPNGPNIDKKEEDLEDKNNFGAEPPHQNGECYPNEKNSVNMDLD
# Columns and labels:
# [1] = tested on: CD4 positive helper T cell lines (Th); experiment: IFN-γ and IL-4 ELISA of colon cancer patient Th induced by hsp105; assay type: cell-based, human; details: FIG. 7B
# Procedure: (§1) The spleen of a BALB/c mouse was collected and ground to separate spleen cells. 200,000 spleen cells per well on a 96-well flat plate were cultured in 200 μl of a culture solution containing IL-2 (100 IU/ml) and a 2 μg/ml recombinant hsp105 protein for 1 week. Thereafter, every week, the culture product was repeatedly stimulated with 200,000 spleen cells, which had been pulsed with a 2 μg/ml recombinant hsp105 protein and then exposed to radioactive rays, so as to establish multiple CD4 positive helper T cell lines (Th). The expression of CD4 and CD8 on the surface of cells was confirmed by performing immunofluorescent staining with Monoclonal Antibody MOUSE CD4-FITC, CD8-FITC (IMMUNOTECH, Marseille, France), and then analyzed with FACS (FIG. 6A). […] Thereafter, the intake of [^3H] thymidine was measured with a liquid scintillation counter. […] Thus, IFN-γ and IL-4 secreted from Th as a result of the reaction were measured with Mouse IFN-γ, IL-4 ELISA Ready-SET-Go! […]
# (§2) Monocytes were separated from the peripheral blood. […] The expression of CD4 and CD8 on the surface of cells was confirmed by performing immunofluorescent staining using Pharmingen anti-human CD4, CD8-FITC, and then analyzed with FACS. […] In addition, in the same manner as in Example 7, IFN-γ and IL-4 secreted from Th as a result of the reaction were measured using Human IFN-γ, IL-4 US ELISA Kit (BIOSOURCE, Camarillo, Calif.). […]
# [2] = tested on: CD4 positive helper T cell lines (Th); experiment: [3H] thymidine intake of mouse CD4 positive helper T cell line induced by hsp105; assay type: cell-based, BALB/c mouse; details: spleen cells pulsed with hsp105 protein, 72 hours, FIG. 6B
# Procedure: as §1, with “6A). It was examined by the intake of [^3H] thymidine, whether or not Th specifically reacts with the hsp105 protein and grows. Specifically, 150,000 spleen cells were placed in each well of a 96-well flat plate, and several wells were pulsed with the hsp105 protein overnight, and the other wells were not pulsed therewith.” for “6A).”
# [3] = tested on: CD4 positive helper T cell lines (Th); experiment: IFN-γ and IL-4 ELISA of mouse Th induced by hsp105; assay type: cell-based, BALB/c mouse; details: supernatant 24 hours after addition of Th, FIG. 6C
# Procedure: as §1, with “6A). It was examined by the intake of [^3H] thymidine, whether or not Th specifically reacts with the hsp105 protein and grows. Specifically, 150,000 spleen cells were placed in each well of a 96-well flat plate, and several wells were pulsed with the hsp105 protein overnight, and the other wells were not pulsed therewith.” for “6A).”
# [4] = tested on: CD4 positive helper T cell lines (Th); experiment: [3H] thymidine intake of CD4 positive helper T cell line of colon cancer patient induced by hsp105; assay type: cell-based, human; details: FIG. 7A
# Procedure: as §1, §2
# Colon-26 = experiment: In vivo antitumor activity of mouse Th induced by hsp105, local injection into Colon-26 tumor; set-up: species or system BALB/c mouse; details: tumor with a size of 3 mm, FIG. 6D
# Procedure: as §1, with “6A). It was examined by the intake of [^3H] thymidine, whether or not Th specifically reacts with the hsp105 protein and grows. Specifically, 150,000 spleen cells were placed in each well of a 96-well flat plate, and several wells were pulsed with the hsp105 protein overnight, and the other wells were not pulsed therewith.” for “6A).”
molecule,measurement,setting,value
B1,IFN-γ and IL-4 secreted from Th,[1],generates a large amount of IFN-γ
same,hsp105 protein-specific growth of Th ([3H] thymidine intake),[2],specifically reacted with the hsp105 protein and grew
same,IFN-γ and IL-4 secreted from Th,[3],generates a large amount of IFN-γ
same,hsp105 protein-specific growth of Th ([3H] thymidine intake),[4],specifically reacted with the hsp105 protein and grew
same,growth of Colon-26 tumor after local injection of Th,Colon-26,clearly retarded
